Molecular target: T1, His8-tagged GSAP-16K 734 to 758 (UniProt A4D1B5 734-758)
T1 chain (looked up): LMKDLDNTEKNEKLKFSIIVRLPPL
Test: SEC

binding result: binds
Binder: SIHHGVVEV (domain or fragment, UniProt P05067 730-738, looked up) [GST-APP 730 to 738]

Source: article PMC8944281 (Proceedings of the National Academy of Sciences of the …, 2022)
